Data on 56 variants can be found in the Human Domainome abundance scans (Beltran et al. 2025).

B1: Dystrobrevin alpha, residues 235 to 294; numbered along this chain, Q9Y4J8 (parent)
chain: ENVFHPVECSYCHSESMMGFRYRCQQCHNYQLCQDCFWRGHAGGSHSNQHQMKEYTSWKS
B2: Myocardin, residues 363 to 406; numbered along this chain, Q8IZQ8 (parent)
chain: KPGPLPPNLDDLKVSELRQQLRIRGLPVSGTKTALMDRLRPFQD

± gives the uncertainty stated by the source.

In the first series the parent is B1. Briefly: abundance fitness (aPCA) (normalised: wild type 0, dead -1); higher = more abundant; growth selection in yeast, the domain comes from the species named. The settings on record: Homo sapiens.
For the variant ENVFHPVECSYCHSESMMGFRYRCQQCHNYQLCQDCFNRGHAGGSHSNQHQMKEYTSWKS, the abundance fitness came to 0.308 ± 0.15.
The same measure, in the same setting: the result for ENVFHPVFCSYCHSESMMGFRYRCQQCHNYQLCQDCFWRGHAGGSHSNQHQMKEYTSWKS reads -0.13 ± 0.084; that for ENVFHPVECSYCHSESMMGFRYRCQQCHNYQLCQDCFWRGHAGGIHSNQHQMKEYTSWKS, -0.394 ± 0.14; that for ENVFHPVECSYCHSESMMGFRYRCQQCVNYQLCQDCFWRGHAGGSHSNQHQMKEYTSWKS, 0.06 ± 0.047.
For ENVFHPVECSYCHSESMMGFRYRCKQCHNYQLCQDCFWRGHAGGSHSNQHQMKEYTSWKS, the abundance fitness is -0.003 ± 0.066.
For ENVFHPVECSYCHSESMMGFRYRCQQCHNYQLCQDCFWRGHAGGSHSNQHQMKEYASWKS, the abundance fitness was 0.017 ± 0.061.

In another series the parent is B2. The series is described as above. The settings on record: Homo sapiens.
Regarding KPMPLPPNLDDLKVSELRQQLRIRGLPVSGTKTALMDRLRPFQD, the abundance fitness came to 0.146 ± 0.076.
As to KPLPLPPNLDDLKVSELRQQLRIRGLPVSGTKTALMDRLRPFQD, the abundance fitness is -0.025 ± 0.08.
For the variant KPTPLPPNLDDLKVSELRQQLRIRGLPVSGTKTALMDRLRPFQD, the abundance fitness came out at 0.099 ± 0.099.
Same read-out and setting: the result for KPKPLPPNLDDLKVSELRQQLRIRGLPVSGTKTALMDRLRPFQD reads 0.245 ± 0.12; that for KPWPLPPNLDDLKVSELRQQLRIRGLPVSGTKTALMDRLRPFQD, -0.607 ± 0.083; that for KPSPLPPNLDDLKVSELRQQLRIRGLPVSGTKTALMDRLRPFQD, -0.077 ± 0.088.
In the case of KPCPLPPNLDDLKVSELRQQLRIRGLPVSGTKTALMDRLRPFQD, the abundance fitness was -0.792 ± 0.23.
As to KPQPLPPNLDDLKVSELRQQLRIRGLPVSGTKTALMDRLRPFQD, the abundance fitness turned out to be 0.295 ± 0.099.
The same measure, in the same setting: the result for KPYPLPPNLDDLKVSELRQQLRIRGLPVSGTKTALMDRLRPFQD reads -0.067 ± 0.13; that for KPDPLPPNLDDLKVSELRQQLRIRGLPVSGTKTALMDRLRPFQD, -0.228 ± 0.12.
Take KPRPLPPNLDDLKVSELRQQLRIRGLPVSGTKTALMDRLRPFQD: the abundance fitness stood at 0.016 ± 0.063.
Same read-out and setting: the result for KPHPLPPNLDDLKVSELRQQLRIRGLPVSGTKTALMDRLRPFQD reads 0.059 ± 0.12; that for KPAPLPPNLDDLKVSELRQQLRIRGLPVSGTKTALMDRLRPFQD, 0.126 ± 0.088; that for KPPPLPPNLDDLKVSELRQQLRIRGLPVSGTKTALMDRLRPFQD, -0.265 ± 0.13.
Turning to KPVPLPPNLDDLKVSELRQQLRIRGLPVSGTKTALMDRLRPFQD, the abundance fitness was found to be 0.102 ± 0.088.
Turning to KRGPLPPNLDDLKVSELRQQLRIRGLPVSGTKTALMDRLRPFQD, the abundance fitness is 0.085 ± 0.071.
Consider KDGPLPPNLDDLKVSELRQQLRIRGLPVSGTKTALMDRLRPFQD, for which the abundance fitness was 0.407 ± 0.18.
On to KEGPLPPNLDDLKVSELRQQLRIRGLPVSGTKTALMDRLRPFQD, for which the abundance fitness is 0.401 ± 0.094.
In the case of KSGPLPPNLDDLKVSELRQQLRIRGLPVSGTKTALMDRLRPFQD, the abundance fitness was determined as 0.184 ± 0.07.
Take KFGPLPPNLDDLKVSELRQQLRIRGLPVSGTKTALMDRLRPFQD: the abundance fitness came to 0.328 ± 0.24.
In the case of KIGPLPPNLDDLKVSELRQQLRIRGLPVSGTKTALMDRLRPFQD, the abundance fitness came to 0.466 ± 0.087.
Turning to KHGPLPPNLDDLKVSELRQQLRIRGLPVSGTKTALMDRLRPFQD, the abundance fitness was -0.093 ± 0.11.
Take KAGPLPPNLDDLKVSELRQQLRIRGLPVSGTKTALMDRLRPFQD: the abundance fitness worked out at 0.25 ± 0.061.
Same read-out and setting: for KWGPLPPNLDDLKVSELRQQLRIRGLPVSGTKTALMDRLRPFQD the value was -0.231 ± 0.093.
Still for that read-out and setting: the result for KVGPLPPNLDDLKVSELRQQLRIRGLPVSGTKTALMDRLRPFQD reads 0.39 ± 0.11.
As to KKGPLPPNLDDLKVSELRQQLRIRGLPVSGTKTALMDRLRPFQD, the abundance fitness stood at 0.284 ± 0.095.
KTGPLPPNLDDLKVSELRQQLRIRGLPVSGTKTALMDRLRPFQD: the abundance fitness is -0.016 ± 0.13.
Consider KNGPLPPNLDDLKVSELRQQLRIRGLPVSGTKTALMDRLRPFQD, for which the abundance fitness is -0.011 ± 0.13.
On the same count and under the same terms, for KYGPLPPNLDDLKVSELRQQLRIRGLPVSGTKTALMDRLRPFQD the value was 0.136 ± 0.35; for KQGPLPPNLDDLKVSELRQQLRIRGLPVSGTKTALMDRLRPFQD, 0.374 ± 0.073.
In the case of KMGPLPPNLDDLKVSELRQQLRIRGLPVSGTKTALMDRLRPFQD, the abundance fitness stood at 0.387 ± 0.096.
On the same count and under the same terms, for IPGPLPPNLDDLKVSELRQQLRIRGLPVSGTKTALMDRLRPFQD the value was 0.021 ± 0.11; for SPGPLPPNLDDLKVSELRQQLRIRGLPVSGTKTALMDRLRPFQD, -0.672 ± 0.084; for MPGPLPPNLDDLKVSELRQQLRIRGLPVSGTKTALMDRLRPFQD, -0.835 ± 0.25.
On the same count and under the same terms, for NPGPLPPNLDDLKVSELRQQLRIRGLPVSGTKTALMDRLRPFQD the value was 0.11 ± 0.17; for APGPLPPNLDDLKVSELRQQLRIRGLPVSGTKTALMDRLRPFQD, -0.671 ± 0.11; for GPGPLPPNLDDLKVSELRQQLRIRGLPVSGTKTALMDRLRPFQD, -0.47 ± 0.073.
For the variant TPGPLPPNLDDLKVSELRQQLRIRGLPVSGTKTALMDRLRPFQD, the abundance fitness is -0.521 ± 0.13.
Same read-out and setting: the result for CPGPLPPNLDDLKVSELRQQLRIRGLPVSGTKTALMDRLRPFQD reads -0.286 ± 0.17.
In the case of WPGPLPPNLDDLKVSELRQQLRIRGLPVSGTKTALMDRLRPFQD, the abundance fitness was -0.98 ± 0.18.
As for DPGPLPPNLDDLKVSELRQQLRIRGLPVSGTKTALMDRLRPFQD, the abundance fitness was -0.268 ± 0.098.
YPGPLPPNLDDLKVSELRQQLRIRGLPVSGTKTALMDRLRPFQD: the abundance fitness was -0.608 ± 0.17.
Regarding VPGPLPPNLDDLKVSELRQQLRIRGLPVSGTKTALMDRLRPFQD, the abundance fitness is -0.643 ± 0.1.
On the same count and under the same terms, the result for RPGPLPPNLDDLKVSELRQQLRIRGLPVSGTKTALMDRLRPFQD reads -1 ± 0.12; that for LPGPLPPNLDDLKVSELRQQLRIRGLPVSGTKTALMDRLRPFQD, -0.666 ± 0.31; that for KPGELPPNLDDLKVSELRQQLRIRGLPVSGTKTALMDRLRPFQD, 0.107 ± 0.069.
Consider KPGALPPNLDDLKVSELRQQLRIRGLPVSGTKTALMDRLRPFQD, for which the abundance fitness came to 0.069 ± 0.075.
In the case of KPGCLPPNLDDLKVSELRQQLRIRGLPVSGTKTALMDRLRPFQD, the abundance fitness was -0.079 ± 0.13.
Take KPGDLPPNLDDLKVSELRQQLRIRGLPVSGTKTALMDRLRPFQD: the abundance fitness came out at 0.276 ± 0.08.
In the case of KPGFLPPNLDDLKVSELRQQLRIRGLPVSGTKTALMDRLRPFQD, the abundance fitness is 0.755 ± 0.26.
